PMC4963994, “Recombinant expression of Chlamydia trachomatis major outer membrane protein in E. Coli outer membrane as a substrate for vaccine research” (BMC Microbiology, 2016)

Molecular target: the molecule itself
Experiment: SDS-PAGE and western blot; purified MOMP in SDS loading buffer, all samples heated and reduced; NuPAGE gel; blot with anti-CtE EB mouse sera; SDS-resistant dimeric and oligomeric forms

B1: recombinant C. trachomatis Serovar E major outer membrane protein, expressed in the E. coli outer membrane with a PelB leader and purified (natural protein)
chain: LPVGNPAEPSLMIDGILWEGFGGDPCDPCTTWCDAISMRMGYYGDFVFDRVLKTDVNKEFQMGDKPTSTTGNATAPTTLTARENPAYGRHMQDAEMFTNAACMALNIWDRFDVFCTLGASSGYLKGNSASFNLVGLFGDNENQSTVKTNSVPNMSLDQSVVELYTDTAFSWSVGARAALWECGCATLGASFQYAQSKPKVEELNVLCNAAEFTINKPKGYVGQEFPLALIAGTDAATGTKDASIDYHEWQASLALSYRLNMFTPYIGVKWSRASFDADTIRIAQPKSATAIFDTTTLNPTIAGAGDVKASAEGQLGDTMQIVSLQLNKMKSRKSCGIAVGTTIVDADKYAVTVETRLIDERAAHVNAQFRF
notes: Major outer membrane protein (MOMP), C. trachomatis strain E/12-94 Serovar E, ORF O175_03780; also called rCtE-MOMP; rMOMP
binding result: binds
